Measured values from PMC8861093 (2022).

Target: WDR5 (Homo sapiens, UniProt P61964)
Test: biolayer interferometry

Kd: 0.46 µM
B1: MLL4Win (peptide)
chain: LNPHGAARAEVYLR
